Test results reported in US20260166168A1 (MEDILINK THERAPEUTICS SUZHOU, published 2026).

T1: recombinant extracellular domain protein of rat DLL3 (Rat DLL3-His) (rat, UniProt O88671 33-494)
T1 construct: extracellular domain; Commercial protein; not shown: His tag
T1 sequence (looked up): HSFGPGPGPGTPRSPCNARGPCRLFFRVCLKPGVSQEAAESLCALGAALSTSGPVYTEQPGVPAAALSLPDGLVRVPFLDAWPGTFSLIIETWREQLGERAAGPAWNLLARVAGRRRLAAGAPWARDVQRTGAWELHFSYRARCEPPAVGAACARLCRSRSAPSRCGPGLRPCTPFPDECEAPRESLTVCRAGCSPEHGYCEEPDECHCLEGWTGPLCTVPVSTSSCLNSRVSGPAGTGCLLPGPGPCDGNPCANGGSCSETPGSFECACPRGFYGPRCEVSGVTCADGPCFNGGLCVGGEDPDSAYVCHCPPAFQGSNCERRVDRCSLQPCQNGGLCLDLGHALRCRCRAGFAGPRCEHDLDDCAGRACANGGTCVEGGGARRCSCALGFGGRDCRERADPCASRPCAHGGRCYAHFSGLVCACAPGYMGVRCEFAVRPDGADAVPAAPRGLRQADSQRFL

T2: recombinant extracellular domain protein of mouse DLL3 (Mouse DLL3-His) (mouse, UniProt O88516 33-490)
T2 construct: extracellular domain; Commercial protein; also called mDLL3; not shown: His tag
T2 sequence (looked up): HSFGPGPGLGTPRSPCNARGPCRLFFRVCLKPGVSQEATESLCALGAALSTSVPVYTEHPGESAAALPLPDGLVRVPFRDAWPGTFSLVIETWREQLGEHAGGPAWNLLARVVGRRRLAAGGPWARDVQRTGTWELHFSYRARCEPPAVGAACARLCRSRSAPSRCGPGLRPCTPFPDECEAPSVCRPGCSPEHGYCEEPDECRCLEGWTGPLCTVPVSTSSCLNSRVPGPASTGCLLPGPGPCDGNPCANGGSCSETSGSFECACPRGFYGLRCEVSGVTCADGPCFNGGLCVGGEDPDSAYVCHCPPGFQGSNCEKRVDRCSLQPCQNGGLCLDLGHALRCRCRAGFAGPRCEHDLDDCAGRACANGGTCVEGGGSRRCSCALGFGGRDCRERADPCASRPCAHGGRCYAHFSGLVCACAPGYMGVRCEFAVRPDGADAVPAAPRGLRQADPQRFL

T3: recombinant extracellular domain protein of human DLL3 (h.DLL3-ECD-His) (human, UniProt Q9NYJ7 27-492)
T3 construct: extracellular domain; Commercial protein; also called human DLL3 antigen; not shown: His tag
T3 sequence (looked up): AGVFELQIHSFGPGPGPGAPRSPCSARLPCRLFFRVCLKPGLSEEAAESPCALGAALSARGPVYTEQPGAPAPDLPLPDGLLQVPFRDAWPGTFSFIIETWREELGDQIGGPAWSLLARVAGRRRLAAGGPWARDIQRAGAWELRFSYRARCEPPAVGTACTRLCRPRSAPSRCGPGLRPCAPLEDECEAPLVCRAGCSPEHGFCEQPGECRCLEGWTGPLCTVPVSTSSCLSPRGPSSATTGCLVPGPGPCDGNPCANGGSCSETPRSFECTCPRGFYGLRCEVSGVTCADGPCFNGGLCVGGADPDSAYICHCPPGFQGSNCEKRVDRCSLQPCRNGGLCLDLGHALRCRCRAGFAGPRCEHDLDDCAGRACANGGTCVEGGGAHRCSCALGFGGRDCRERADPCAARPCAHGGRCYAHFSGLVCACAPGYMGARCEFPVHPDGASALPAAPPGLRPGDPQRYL

T4: recombinant extracellular domain protein of cynomolgus monkey DLL3 (cyno.DLL3-ECD-His) (cynomolgus monkey, UniProt A0A2K5WSR1 27-490)
T4 construct: extracellular domain; Commercial protein; not shown: His tag
T4 sequence: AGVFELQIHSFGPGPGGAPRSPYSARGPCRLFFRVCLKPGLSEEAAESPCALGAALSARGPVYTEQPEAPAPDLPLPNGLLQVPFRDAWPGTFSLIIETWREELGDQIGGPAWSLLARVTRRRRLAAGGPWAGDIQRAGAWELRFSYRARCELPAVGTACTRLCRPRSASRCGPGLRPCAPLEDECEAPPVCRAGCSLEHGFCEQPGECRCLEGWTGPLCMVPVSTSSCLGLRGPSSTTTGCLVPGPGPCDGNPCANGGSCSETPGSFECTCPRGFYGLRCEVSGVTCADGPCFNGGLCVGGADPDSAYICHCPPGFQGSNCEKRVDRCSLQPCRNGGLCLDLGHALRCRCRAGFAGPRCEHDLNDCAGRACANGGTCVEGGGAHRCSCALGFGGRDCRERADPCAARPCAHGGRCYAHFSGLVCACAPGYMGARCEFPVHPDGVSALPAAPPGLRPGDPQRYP

T5: human DLL1 on 293T-hDLL1 cells (human, UniProt O00548 18-723)
T5 construct: whole, on cells; also called 293T-DLL1; HEK293T-hDLL1
T5 sequence (looked up): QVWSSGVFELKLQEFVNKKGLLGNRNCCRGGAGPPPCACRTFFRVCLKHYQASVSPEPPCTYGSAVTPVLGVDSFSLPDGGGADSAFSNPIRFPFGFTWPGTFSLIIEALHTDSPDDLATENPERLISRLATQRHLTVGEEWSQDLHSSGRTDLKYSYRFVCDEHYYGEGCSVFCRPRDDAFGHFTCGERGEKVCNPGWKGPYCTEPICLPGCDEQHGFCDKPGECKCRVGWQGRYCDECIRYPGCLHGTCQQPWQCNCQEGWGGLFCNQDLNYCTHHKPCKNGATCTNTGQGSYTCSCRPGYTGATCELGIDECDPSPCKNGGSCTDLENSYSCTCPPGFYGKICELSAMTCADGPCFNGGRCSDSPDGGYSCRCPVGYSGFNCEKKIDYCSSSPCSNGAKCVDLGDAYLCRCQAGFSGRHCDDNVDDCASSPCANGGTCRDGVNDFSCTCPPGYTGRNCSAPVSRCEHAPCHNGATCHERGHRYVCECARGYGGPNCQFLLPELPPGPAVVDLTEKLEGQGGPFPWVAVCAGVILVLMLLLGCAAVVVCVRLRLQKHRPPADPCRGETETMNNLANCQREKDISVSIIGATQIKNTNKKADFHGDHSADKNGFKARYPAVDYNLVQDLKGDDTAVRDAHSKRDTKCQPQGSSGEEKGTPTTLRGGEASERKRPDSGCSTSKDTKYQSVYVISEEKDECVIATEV


Legend:
[1] = biological target: canine canis DLL3-ECD-his antigen protein (canine); test: ELISA, coated Canis DLL3-his 0.2 µg/mL, antibody titrated
[2] = biological target: T1, recombinant extracellular domain …; test: ELISA, coated Rat DLL3-his 0.2 µg/mL, antibody titrated
[3] = biological target: T2, recombinant extracellular domain …; test: ELISA, coated Mouse DLL3-His 0.2 µg/mL, antibody titrated
[4] = biological target: T3, recombinant extracellular domain …; test: ELISA, coated h.DLL3-ECD-his 0.2 µg/mL, antibody titrated
[5] = biological target: T4, recombinant extracellular domain …; test: ELISA, coated cyno.DLL3-ECD-his 0.2 µg/mL, antibody titrated
[6] = biological target: T3, recombinant extracellular domain …; test: ELISA, coated hDLL3-ECD-his, murine antibody titrated
[7] = biological target: T5, human DLL1 on 293T-hDLL1 cells; test: flow cytometry on 293T-hDLL1 cells, antibody 20 µg/mL
[8] = biological target: T6, human DLL4 on 293T-hDLL4 cells (human, UniProt Q9NR61 27-685); test: flow cytometry on 293T-hDLL4 cells, antibody 20 µg/mL
T6 construct: whole, on cells; also called 293T-DLL4; HEK293T-hDLL4

[9] = biological target: T4, recombinant extracellular domain …; test: ELISA, coated cynoDLL3-ECD-his, murine antibody titrated

T6 sequence (Q9NR61 27-685): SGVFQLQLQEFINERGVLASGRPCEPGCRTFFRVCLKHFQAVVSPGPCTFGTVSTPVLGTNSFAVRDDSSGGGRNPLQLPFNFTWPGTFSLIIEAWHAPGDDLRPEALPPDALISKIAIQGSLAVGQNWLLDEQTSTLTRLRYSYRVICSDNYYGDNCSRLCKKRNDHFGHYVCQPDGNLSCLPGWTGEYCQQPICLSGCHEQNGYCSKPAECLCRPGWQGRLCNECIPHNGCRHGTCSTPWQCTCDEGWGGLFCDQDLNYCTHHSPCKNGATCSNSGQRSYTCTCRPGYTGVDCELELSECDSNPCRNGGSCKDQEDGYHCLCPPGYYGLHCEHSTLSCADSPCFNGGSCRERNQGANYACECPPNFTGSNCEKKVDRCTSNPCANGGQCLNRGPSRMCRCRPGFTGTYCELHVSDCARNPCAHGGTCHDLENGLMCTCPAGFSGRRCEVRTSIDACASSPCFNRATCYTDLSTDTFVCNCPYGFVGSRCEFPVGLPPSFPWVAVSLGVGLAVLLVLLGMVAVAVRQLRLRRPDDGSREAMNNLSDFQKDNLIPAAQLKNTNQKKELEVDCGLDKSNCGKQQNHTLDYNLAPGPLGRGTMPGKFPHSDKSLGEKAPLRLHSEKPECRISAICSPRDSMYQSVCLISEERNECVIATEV

Binder | EC50 [1] [ng/mL] | EC50 [2] [ng/mL] | EC50 [3] [ng/mL] | EC50 [4] [ng/mL] | EC50 [5] [ng/mL] | EC50 [6] [ng/mL] | positive rate [7] [%] | positive rate [8] [%] | EC50 [9] [ng/mL]
55C11E4-Hz2 (antibody, human IgG1, kappa, V domains shown, Optimized humanized IgG1/kappa; also called 55C11E4-Hz2-biotin) VH: EVQLVQSGAEVKKPGASVKVSCKASGYTFTDYYMNWVRQAPGQRLEWMGVINPYNGGTNYAQKFQGRVTLTVDKSASTAYMELSSLRSEDTAVYYCARDSNYVGLLDYWGQGTLVTVSS VL: DIVLTQSPATLSLSPGERATLSCRASQSISNNLHWYQQKPGQAPRLLIKYASQSISGIPARFSGSGSGPDFTLTISSLEPEDFAVYFCQQSNSWPYTFGQGTKVEIKR | 12.9 | 3.67 | 21.3 | 4.95 | 4.98 |  |  |  | 
murine antibody 6F11C10 (antibody, V domains shown, Murine antibody purified from hybridoma supernatant) VH: EVHLQQSGPVLVKPGPSVKISCKASGFTFTDYYMHWVKQSHGKSLEWIGLVYPYNGDISYNQKFKGKATLTVDTSSSTAYMELNSLTSEDSAVYYCARQGNYVNNAIDYWGQGTSVTVSS VL: DIVMTQSQKFMSTSVGDRVSISCKASQNVGNIIAWYQQKPGQSPKALIYLASYRYSGVPDRFTGSGSGTDFTLTINNVQSEDLAEYFCQQYSDSPYTFGSGTKLEI |  |  |  |  |  | 7.59 | 0.64 | 0.76 | 19.5
6F11C10-Hz2 antibody (antibody, human IgG1, kappa, V domains shown, Optimized humanized IgG1/kappa; also called 6FC11C0-Hz2; 6F11C10-Hz2-biotin) VH: EVQLVQSGAEVKKPGASVKVSCKASGFTFTDYYMHWVRQAPGQSLEWMGLVYPYSGDISYAQKFQGRVTLTVDTSISTAYMELSRLRSDDTAVYYCARQGNYVNNAIDYWGQGTLVTVSS VL: DIQMTQSPSSLSASVGDRVTITCKASQNVGNIIAWYQQKPGKSPKALIYLASYRYSGVPSRFSGSGSGTDFTLTISSLQPEDVATYFCQQYSDSPYTFGQGTKVEIKR | 17.2 | 7.35 | 30.1 | 8.23 | 10.8 |  |  |  | 

Continued, values first:

EC50 [1] [ng/mL] | EC50 [2] [ng/mL] | EC50 [3] [ng/mL] | EC50 [4] [ng/mL] | EC50 [5] [ng/mL] | EC50 [6] [ng/mL] | positive rate [7] [%] | positive rate [8] [%] | EC50 [9] [ng/mL] | Binder
 |  |  |  |  | 56.7 | 0.92 | 0.1 | 40.9 | murine antibody 55C11E4 (antibody, V domains shown, Murine antibody purified from hybridoma supernatant) VH: EVQLQQSGPVLVKPGASVKMSCKASGYTFTDYYMNWVKQSHGKSLEWIGVINPYNGGTNYSQKFKGKATLTVDKSSSTAYMELNSLTSEDSAVYYCARDSNYVGLLDYWGQGTSVTVSS VL: DIVLTQSPATLSVTPGDSVSLSCRASQSISNNLHWYQQKSHESPRLLIKYASQSISGIPSRFSGSGSGPDFTLSIDSVETEDFGVYFCQQSNSWPYTFGGGTKLEIK
 |  |  |  |  | 1.68 | 1.84 | 0.42 | 1.31 | murine antibody 87F7F10 (antibody, V domains shown, Murine antibody purified from hybridoma supernatant) VH: DVQLQESGPGLVKPSQSLSLTCSVTGYSITSDFYWNWIRQFPGNKLEWMGYITYDGSTNYDPSLKNRISITRDTSKNQFFLKLNSVTAEDTATYYCVYGDFNRHAMDYWGQGTSVTVSS VL: DIVMSQSPSSLAVSAGEKVTMSCRSSQSLFNSRTRKNYLAWYQQKPGQPPKVLIYWASTRESGVPDRFTGSGSGTDFTLTISSVQAEDLAVYYCEQSFYLFTFGTGTKLEI
 |  |  |  |  | 1.3 | 6.3 | 0.67 | 1.25 | murine antibody 59B10D3 (antibody, V domains shown, Murine antibody purified from hybridoma supernatant) VH: EVKLEESGGGLVQPGGSMKLSCAASGFTFSDAWMDWVRQSPEKGLEWIAEIRNKANNHATYYTESVKGRFTISRDDSKSSVYLQMISLRPEDTGIYYCTRNNYGSTWTYYAMDYWGQGTSVTVSS VL: DIQMTQTSSSLSASLGDRVTINCRASQDISNYLNWYQQKPDGTVKLLIYYTSRLHSGVPSRFSGSGSGTDYSLTISNLEHEDIATYFCQQGYTLPLTFGAGTNLELK
